Source: US20130171217A1, “ENZYMATIC PERACID GENERATION FOR USE IN SKIN CARE PRODUCTS” (E I DU PONT DE NEMOURS AND COMPANY, priority 2010, published 2013)

B1: SEQ ID NO: 331: L29P variant of the hydrolase from Pseudomonas fluorescens fused to hair binding domain HC263 via a flexible linker (protein)
chain: MSTFVAKDGTQIYFKDWGSGKPVLFSHGWPLDADMWEYQMEYLSSRGYRTIAFDRRGFGRSDQPWTGNDYDTFADDIAQLIEHLDLKEVTLVGFSMGGGDVARYIARHGSARVAGLVLLGAVTPLFGQKPDYPQGVPLDVFARFKTELLKDRAQFISDFNAPFYGINKGQVVSQGVQTQTLQIALLASLKATVDCVTAFAETDFRPDMAKIDVPTLVIHGDGDQIVPFETTGKVAAELIKGAELKVYKDAPHGFAVTHAQQLNEDLLAFLKRGPGSGGAGSPGSAGGPGSPSAQSQLPDKHSGLHERAPQRYGPEPEPEPEPIPEPPKEAPVVIEKPKPKPKPKPKPPAHDHKNQKETHQRHAAGSGGGGSPHHHHHH
B2: SEQ ID NO: 333: L29P variant of Pseudomonas fluorescens hydrolase fused to hair binding domain HC263KtoR via a flexible linker (protein)
chain: MSTFVAKDGTQIYFKDWGSGKPVLFSHGWPLDADMWEYQMEYLSSRGYRTIAFDRRGFGRSDQPWTGNDYDTFADDIAQLIEHLDLKEVTLVGFSMGGGDVARYIARHGSARVAGLVLLGAVTPLFGQKPDYPQGVPLDVFARFKTELLKDRAQFISDFNAPFYGINKGQVVSQGVQTQTLQIALLASLKATVDCVTAFAETDFRPDMAKIDVPTLVIHGDGDQIVPFETTGKVAAELIKGAELKVYKDAPHGFAVTHAQQLNEDLLAFLKRGPGSGGAGSPGSAGGPGSPSAQSQLPDRHSGLHERAPQRYGPEPEPEPEPIPEPPREAPVVIERPRPRPRPRPRPPAHDHRNQRETHQRHAAGSGGGGSPHHHHHH
B3: SEQ ID NO: 337: L29P variant of Pseudomonas fluorescens hydrolase fused to the charged peptide (GK)5-His6 via a flexible linker (protein)
chain: MSTFVAKDGTQIYFKDWGSGKPVLFSHGWPLDADMWEYQMEYLSSRGYRTIAFDRRGFGRSDQPWTGNDYDTFADDIAQLIEHLDLKEVTLVGFSMGGGDVARYIARHGSARVAGLVLLGAVTPLFGQKPDYPQGVPLDVFARFKTELLKDRAQFISDFNAPFYGINKGQVVSQGVQTQTLQIALLASLKATVDCVTAFAETDFRPDMAKIDVPTLVIHGDGDQIVPFETTGKVAAELIKGAELKVYKDAPHGFAVTHAQQLNEDLLAFLKRGPGSGGAGSPGSAGGPGSGKGKGKGKGKHHHHHH
B4: SEQ ID NO: 335: L29P variant of Pseudomonas fluorescens hydrolase fused to hair binding domain HC1010 via a flexible linker (protein)
chain: MSTFVAKDGTQIYFKDWGSGKPVLFSHGWPLDADMWEYQMEYLSSRGYRTIAFDRRGFGRSDQPWTGNDYDTFADDIAQLIEHLDLKEVTLVGFSMGGGDVARYIARHGSARVAGLVLLGAVTPLFGQKPDYPQGVPLDVFARFKTELLKDRAQFISDFNAPFYGINKGQVVSQGVQTQTLQIALLASLKATVDCVTAFAETDFRPDMAKIDVPTLVIHGDGDQIVPFETTGKVAAELIKGAELKVYKDAPHGFAVTHAQQLNEDLLAFLKRGPGSGGAGSPGSAGGPGSAQSQLPDKHSGLHERAPQRYGSGTAEIQSSKNPNPHPQRSWTNGSGHNHMQERYTDPQHSPSVNGLGSGHDHKNQKETHQRHAASSHHHHHH
B5: SEQ ID NO: 321: acetyl xylan esterase from Mesorhizobium loti fused at its C-terminus to hair binding domain HC263 via a flexible linker (protein)
chain: MPFPDLIQPELGAYVSSVGMPDDFAQFWTSTIAEARQAGGEVSIVQAQTTLKAVQSFDVTFPGYGGHPIKGWLILPTHHKGRLPLVVQYIGYGGGRGLAHEQLHWAASGFAYFRMDTRGQGSDWSVGETADPVGSTSSIPGFMTRGVLDKNDYYYRRLFTDAVRAIDALLGLDFVDPERIAVCGDSQGGGISLAVGGIDPRVKAVMPDVPFLCDFPRAVQTAVRDPYLEIVRFLAQHREKKAAVFETLNYFDCVNFARRSKAPALFSVALMDEVCPPSTVYGAFNAYAGEKTITEYEFNNHEGGQGYQERQQMTWLSRLFGVGGPGSGGAGSPGSAGGPGSPSAQSQLPDKHSGLHERAPQRYGPEPEPEPEPIPEPPKEAPVVIEKPKPKPKPKPKPPAHDHKNQKETHQRHAAGSGGGGSPHHHHHH
B6: SEQ ID NO: 329: S54V variant of Mycobacterium smegmatis aryl esterase fused to the charged peptide (GK)5-His6 via a flexible linker (protein)
chain: MAKRILCFGDSLTWGWVPVEDGAPTERFAPDVRWTGVLAQQLGADFEVIEEGLVARTTNIDDPTDPRLNGASYLPSCLATHLPLDLVIIMLGTNDTKAYFRRTPLDIALGMSVLVTQVLTSAGGVGTTYPAPKVLVVSPPPLAPMPHPWFQLIFEGGEQKTTELARVYSALASFMKVPFFDAGSVISTDGVDGIHFTEANNRDLGVALAEQVRSLLGPGSGGAGSPGSAGGPGSGKGKGKGKGKHHHHHH
B7: SEQ ID NO: 327: S54V variant of Mycobacterium smegmatis aryl esterase fused to hair binding domain HC1010 via a flexible linker (protein)
chain: MAKRILCFGDSLTWGWVPVEDGAPTERFAPDVRWTGVLAQQLGADFEVIEEGLVARTTNIDDPTDPRLNGASYLPSCLATHLPLDLVIIMLGTNDTKAYFRRTPLDIALGMSVLVTQVLTSAGGVGTTYPAPKVLVVSPPPLAPMPHPWFQLIFEGGEQKTTELARVYSALASFMKVPFFDAGSVISTDGVDGIHFTEANNRDLGVALAEQVRSLLGPGSGGAGSPGSAGGPGSAQSQLPDKHSGLHERAPQRYGSGTAEIQSSKNPNPHPQRSWTNGSGHNHMQERYTDPQHSPSVNGLGSGHDHKNQKETHQRHAASSHHHHHH
B8: SEQ ID NO: 319: acetyl xylan esterase from Lactococcus lactis fused at its C-terminus to hair binding domain HC263 via a flexible linker (protein)
chain: MTKINNWQDYQGSSLKPEDFDKFWDEKINLVSNHQFEFELIEKNLSSKVVNFYHLWFTAIDGAKIHAQLIVPKNLKEKYPAILQFHGYHCDSGDWVDKIGIVAEGNVVLALDCRGQGGLSQDNIQTMGMTMKGLIVRGIDEGYENLYYVRQFMDLITATKILSEFDFVDETNISAQGASQGGALAVACAALSPLIKKVTATYPFLSDYRKAYELGAEESAFEELPYWFQFKDPLHLREDWFFNQLEYIDIQNLAPRIKAEVIWILGGKDTVVPPITQMAAYNKIQSKKSLYVLPEYGHEYLPKISDWLRENQGPGSGGAGSPGSAGGPGSPSAQSQLPDKHSGLHERAPQRYGPEPEPEPEPIPEPPKEAPVVIEKPKPKPKPKPKPPAHDHKNQKETHQRHAAGSGGGGSPHHHHHH
B9: SEQ ID NO: 317: acetyl xylan esterase from Bacillus pumilus fused at its C-terminus to hair binding domain HC263 via a flexible linker (protein)
chain: MQLFDLSLEELKKYKPKKTARPDFSDFWKKSLEELRQVEAEPTLESYDYPVKGVKVYRLTYQSFGHSKIEGFYAVPDQTGPHPALVRFHGYNASYDGGIHDIVNWALHGYATFGMLVRGQGGSEDTSVTPGGHALGWMTKGILSKDTYYYRGVYLDAVRALEVIQSFPEVDEHRIGVIGGSQGGALAIAAAALSDIPKVVVADYPYLSNFERAVDVALEQPYLEINSYFRRNSDPKVEEKAFETLSYFDLINLAGWVKQPTLMAIGLIDKITPPSTVFAAYNHLETDKDLKVYRYFGHEFIPAFQTEKLSFLQKHLLLSTGPGSGGAGSPGSAGGPGSPSAQSQLPDKHSGLHERAPQRYGPEPEPEPEPIPEPPKEAPVVIEKPKPKPKPKPKPPAHDHKNQKETHQRHAAGSGGGGSPHHHHHH
B10: SEQ ID NO: 325: S54V variant of Mycobacterium smegmatis aryl esterase fused to hair binding domain HC263KtoR via a flexible linker (protein)
chain: MAKRILCFGDSLTWGWVPVEDGAPTERFAPDVRWTGVLAQQLGADFEVIEEGLVARTTNIDDPTDPRLNGASYLPSCLATHLPLDLVIIMLGTNDTKAYFRRTPLDIALGMSVLVTQVLTSAGGVGTTYPAPKVLVVSPPPLAPMPHPWFQLIFEGGEQKTTELARVYSALASFMKVPFFDAGSVISTDGVDGIHFTEANNRDLGVALAEQVRSLLGPGSGGAGSPGSAGGPGSPSAQSQLPDRHSGLHERAPQRYGPEPEPEPEPIPEPPREAPVVIERPRPRPRPRPRPPAHDHRNQRETHQRHAAGSGGGGSPHHHHHH

Assay: Perhydrolase activity of targeted hydrolases, ABTS assay
Format: biochemical
Conditions: 1 m Na acetate at pH 5.5 instead of triacetin
Protocol: The ABTS assay was performed as follows: hair samples treated as described above were transferred to new 2-mL microcentrifuge tubes (Eppendorf Protein LoBind; Eppendorf North America, Hauppauge, N.Y.) To each tube was added 480 μL of PAH buffer ([…]), 14 μL of 39% hydrogen peroxide (Sigma 3410), and 6 μL triacetin (Sigma-Aldrich W200700). The perhydrolase reaction was allowed to proceed for 10 minutes at room temperature (˜22-25° C.). The reaction was stopped by diluting aliquots 10×, 100× and 1000× with 10 mM phosphoric acid. For detection 50 μL of 1 M acetic acid, 50 μL of 40 mg/mL potassium iodide, and 50 μL of 4 mM ABTS (2,2′-azino-bis(3-ethylbenzthiazoline-6-sulphonic acid; Sigma, St Louis, Mo.) were added to 50 μL of the above dilutions. Color was allowed to develop for 10 minutes and read in a spectrophotometer at 405 nm. Values from no-enzyme controls were subtracted to yield values attributable only to enzyme activity. A standard curve of OD 405 nm vs PAA concentration in ppm yielded a conversion factor of 8.75, such that an OD 405 nm of 1.0 corresponded to approximately 8.75 ppm PAA. This value was then multiplied by the appropriate dilution to arrive at the PAA concentration in the perhydrolase reaction.
The perhydrolase activity of the enzymes targeted to hair with a variety of targeting domains produced as described in Example 32 was measured with the ABTS assay.
Molecule B1 has a Specific perhydrolase activity of 0.37 µmol/mg/min. In the case of B2, the Specific perhydrolase activity is reported as 1.45 µmol/mg/min. B3 showed a Specific perhydrolase activity of 2.65 µmol/mg/min. With B4 the Specific perhydrolase activity was 1.5 µmol/mg/min.

Same assay, conditions: triacetin at pH 7.5
Work on B5 yielded a Specific perhydrolase activity of 34 µmol/mg/min. Molecule B6 has a Specific perhydrolase activity of 264 µmol/mg/min. Work on B7 yielded a Specific perhydrolase activity of 20 µmol/mg/min. In the case of B8, the Specific perhydrolase activity is reported as 99 µmol/mg/min. Work on B9 yielded a Specific perhydrolase activity of 40 µmol/mg/min. Work on B10 yielded a Specific perhydrolase activity of 46 µmol/mg/min.
